The values below come from the DeepSol protein solubility set.

This data set in a line: soluble on expression in E. coli; label from the status in PepcDB or PDB records.
In the case of “MAHHHHHHMDKYTKVKNIGKGNMGTCTLARNNEDGKYYVIKQVDLTRMSKKDRQQSLNEARVLSSLRHPNIINYVDSFLARKSDNLCIVMEYAESGDVCTRLKKHYGVNVPERQVVDWLIQLVLSLDYVHQRKILHRDVKTQNIFLTHENLIKLGDFGIARTLANTYDQAQTFVGTPYYLSPELILEQPYDHRSDVWALGVVLYEMLTLKHPFNAKDMKGLLQRILAVHYDPLPTMYSAELRDIVARMLVRDPAGRIKLDEILQIPIVRERIRQWLKEPDVVPQHYVRSLCKHHLLPDFQDEATAMPSTRSAARAAAAMAHEEWRTTSEATSAQTDGDVCARKDTDTRPHVTLGGPFSIPSTAARTAAAVCTSSADEESSDGVRPSIPPLKPYSNLPQLGMASPQLYTPQLPQMHPRVQSNNRASSPSRLFRSPFSTPSVARSAALPISRQQGDPVSQSSPAPLPLQRPIARAKAPTRPYARPYVAQPHLSPSPGYLFAANPRKNPIDARRQQSSRPSGPYLNPLFAAPRQMAPAYRSLVPPLPPPPDIKAMLQRAAAERARR”, the “soluble on expression in E. coli” value is “not soluble”.
For “MASKSRILQLKGTGLKKVPDEIEPLADVLRNLELSENKIREIPIFIGQFSQLKQLHLANNCLEFLPDELGSMKKLEILNLAGNKLKALPDTIVGCTDLKTIDLSSNVFTVFPVAVIGCLQLDILNLNGNQIESLPDDISNLKVIELSLNQNRLSSLNPSNLAKTTRLRTLRLDENCLEKSEFTRDLLESSTISVMSYDGNRFQLKDFQDLPGYDAYQERFTATKRKI”, the “soluble on expression in E. coli” value is listed as “not soluble”.
In the case of “MSLNEKEINYEEVMAKIDPENGIQVEIPRGANTDDIANILREHGVIKYPFWFKFVSKFNGYDGRYKSGKHIVNKDLKYKEIMEILCSNPVTTTVTIIEGKNTDQIADILSEKKVIDKEAFLEACNTEKFDYEFLKDIPENPQRENKLEGYLFPDTYFFDPKAGERAIIEKFLDNFDAKFKPEFYERAKELNMTVDEVIILASIIERETALPEERPIVSSVFHNRLKSSDPNLKKLESCATVQYVLYKTQGKMKEKLSDEDTKIDHPYNTYLYEGLPPGPICCPGLASIEAALYPDEESEYLYFVAKGDGSHEFSRTLAEHLEAVKKYQSNEGHHHHHH”, the “soluble on expression in E. coli” value was “soluble”.
The same measure for “MGSDKIHHHHHHMPTPHLDTALSGPILDLERCILNAMPSIEQWLRNEWQTHAAPFYCSVDLRNSGFKLAPVDTNLFPGGFNNLNREFMPLCVQAMMAAIDKICTGARSVLLIPESHTRNIFYLQNLAALHAIMRHAGIHVRIGTLLPEITAPTALDLPGGNKLTLEPIQRKGNRVVLEDFDPCVVLLNNDLSTGTPAVLQNLEQTVIPPLHAGWTSRRKSHHFTAYDNVSQQFASLIGIDPWLINPYFASCGKINFREKKGEDCVANTVDEILHQIREKYAEYGVRKDPFVIVKADAGTYGMGIMTVKDGAQVRTLSRKQRNKMAVVKEGLEVTDIMVQEGVYTFENVDDAVAEPVIYMIDRYVVGGFYRVHTERGVDENLNAPGMHFVPLAFEDTCLLPDREAQPGCSANRFYAYGVIARLALLAAAQELEKSEARIEAIMA”: “not soluble”; for “GEIYTETLQQTYAWTAGTNIPIKIPRNNFIRKIRVQLIGSISNSGTAAVTLPSAPFPYNLVQTFNLSYEGSKTLYSVSGTGLGILMYYTTKGQNPAYPAPGTSVPASGSVNLNVMWEFDLARFPATMVQNIILSILTGQAPSGVSINASFYITITYERVTAQEILSEGGLGADGEMPLATVLPKVIEIPTFNVPASSAPIHVAYLQPGQIYKRQLVYVINSTSGINNTDPTEYELKIVRGVPTDKIKVSWAALQAENQAEYQVAPYSGASAIIDFRKYFNGDLDLTHAPSDSIEYDLALQNQDNVYSLYVSYVLPYYDQLAALPAQVAAIVQQYVARQKRRIKRHHHHHH”: “soluble”.
For “MERDGYKCRICDHSYLDIHYKDGNVENKNLENLIVLCKQCHYRLHQKERMESIKQAFEDFLDELSKNPIEVVIDFSFKKIVESNEEKIRREIIQGFTRPFGVISRIQEKVRDAIMKEIEEEIEKEQASTPEHLRKVVLERNNYRCSVCGYGYLEVHHVDGNILNNTLDNLVTLCRRCHRKVHYHPSFHTTPEDMDKCIRSFHHEFYSTIYEIMKNKKGNIRISIKFDQLGVKGVKISRAQFKRINGLFNHEVINDGIFKQWEREIKNYLSRLEWEQQKEIYRNVYFLLECILPKDSFEAFVNLARKGKFDRRTLREAKKVLKNSIKLEHHHHHH”, the “soluble on expression in E. coli” value was “soluble”.
Consider “MGHHHHHHSHMIVNVIGAGLAGSEVAYNLGKRGIRVRLFEMRPKKMTEVHKTGYFAELVCSNSLKSEDITNAEGLLKAEMRLMGSITLEAAEKARVPSGKALAVDRNIFAKEVTEVIERLESVEIIREEVTEFDPEEGIWVVATGPATSDGLLPFLKKLLGDDLLFFFDAVSPIVTFESIDMECAFWGDRFGKGKDYINCPLTKEEYEEFWKALVEAEVIEMEDFDRKLLFERCQPIEEIARSGKDALRYGPLRPTGLVDPRTGKEPYAVVQLRREDKEGRFYSLVGFQTRLKWSEQKRVLRKIPCLRNAEIVRYGVMHRNVYINSPKLLDIFFRLKKHPNIFFAGQITGVEGYMESAASGIYVAYNVHRILKGLSPLKLPEETMMGALFSYIIEKVEGDLKPMYANFGLLPPLKVRVKDKFEKRKKLAERAIETMKKFLEENPW”, for which the “soluble on expression in E. coli” value was “soluble”.
The same measure for “MSDVAIVKEGWLHKRGEYIKTWRPRYFLLKNDGTFIGYKERPQDVDQREAPLNNFSVAQCQLMKTERPRPNTFIIRCLQWTTVIERTFHVETPEEREEWTTAIQTVADGLKKQEEEEMDFRSG”: “soluble”.
On to “MAKLRVGIVFGGKSAEHEVSLQSAKNIVDAIDKTRFDVVLLGIDKAGQWHVNDAENYLQNADDPAHIALRPSAISLAQVPGKHQHQLINAQNGQPLPTVDVIFPIVHGTLGEDGSLQGMLRVANLPFVGSDVLSSAACMDKDVAKRLLRDAGLNIAPFITLTRTNRHAFSFAEVESRLGLPLFVKPANQGSSVGVSKVANEAQYQQAVALAFEFDHKVVVEQGIKGREIECAVLGNDNPQASTCGEIVLNSEFYAYDTKYIDDNGAQVVVPAQIPSEVNDKIRAIAIQAYQTLGCAGMARVDVFLTADNEVVINEINTLPGFTNISMYPKLWQASGLGYTDLISRLIELALERHTANNALKTTM”, for which the “soluble on expression in E. coli” value was “soluble”.
The same measure for “GVSFFLVKEKMKGKNKLVPRLLGITKECVMRVDEKTKEVIQEWSLTNIKRWAASPKSFTLDFGDYQDGYYSVQTTEGEQIAQLIAGYIDIIL”: “soluble”.
With “MGSDKIHHHHHHMKELENYYGRLFTKYQLTAKEREIAEKVPSITKKNNCFRCGTTFKEENKLPNDAYYCRACLLLGRVRSDEKLYHFPQKDFPITKCLKWKGQLTDWQQRISDGLVANVENNRATLVHAVTGAGKTEMIYHTVASVIDKGGAVCLASPRIDVCIELYKRLQNDFSVPISLLHGESEPYFRTPLVVATTHQLLKFYQAFDLVLIDEVDAFPYADNPMLYQAADNAVKEAGVQVFLTATSTDELDKKVRTGKLSRLSLPRRFHGNPLVVPQKVWFSKFDDTLKKNRLVPKLKKAIEEQRKSGFPLLIFVPEISKGQEFTKIMKKTFPEETIGFVSSQTENRLEIVEGFRKREITVLISTTILERGVTFPCVDVFVVQANHYLYTASSLVQIAGRVGRSIERPTGLLQFYHEGSTGAIEKAIAEIKQMNKEAGYV”, the “soluble on expression in E. coli” value was “not soluble”.
The same measure for “MKTENFRSYNQRVYSETLNDGLKITLIPKKDFHSVFAALFVNAGATDQQIVDEKGETIIFPSGTAHFAEHKMFEKKNGDVSEIFSAYGAFSNAYTSQSQTVYYFQGTENIDQSIKLLLQFVQEPYYTEASVAKEQGIIGQEISMYQDMPDWVSSFGLMKNLYRKQPLGEDIAGNIDSIETINADLLYKFHRYFYQPSNLQLKIAGNIDPTGLLALLKQTQARLTRPRINFSRVNRFNAKIPVKKSAEQNMPVALPLLAAGIKGSGNLPDIDTAIDLSFSSDLILDIYFSDSSDWYLRNYNQGFLNDDFSAQADVGRNYNFITFTGHSENKELFKEIYSQLKNISYSQELEKEFQWQKKASLGELSMSLDQLENNVFTIADVFNTDVNIFRVIEKLRELTYRKAVNLFESYYNLDSFSSFCVNPVE”: “not soluble”.
Then “MGSDKIHHHHHHMWVCGLGVIRFGPAGKPVEFKGDIVKVPEFLRSIGLDALEYEAVRGVRISEAKARRLGEAARENGVILSMHAPYYVNLSSPDDSVVERSIKRLYDSMIASEWMGSYAVVVHPGYYKGLKSREEAVKRVIEALNRLIESLPSWVKTPWIAPETMGKQSQVGSLEETVEICLNTPRCRPCVDWAHLYARAEGKFVTSVDQVVKAIEYIESNLGREAVDPLHTHFSKIEYGKGGERMHHTLREEGYGPDWRIVCRAYKETGINAVVISESPILEKDALLMKSICKGEA”, with “not soluble”.
